Laboratory results reported in the RNAGym collection of RNA variant scans (doi:10.1093/molbev/msab373).

B1: Azoarcus group I ribozyme (parent)
chain: GUGCCUUGCGCCGGGAAACCACGCAAGGGAUGGUGUCAAAUUCGGCGAAACCUAAGCGCCCGCCCGGGCGUAUGGCAACGCCGAGCCAAGCUUCGGCGCCUGCGCCGAUGAAGGUGUAGAGACUAGACGGCACCCACCUAAGGCAAACGCUAUGGUGAAGGCAUAGUCCAGGGAGUGGCGAAAGUCACACAAACCGG

Variants of: B1
Assay: reverse-splicing fitness (ratio to wild type); higher = more active; in vitro selection; Mg2+ level not given
How it was run: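 An in vitro group I ribozyme library with randomized positions was T7-transcribed and gel-purified. In triplicate, 10 pmol RNA in EPPS pH 7.5 was reacted with 50 pmoles of a 30-nt RNA substrate for 1 h at 37 °C across several added MgCl2 levels (1–48 mM), then stopped with EDTA. Products were reverse transcribed from a substrate-complementary primer, PCR-amplified and sequenced (HiSeq 4000). Fitness is a variant's read proportion after selection over that before, normalised to wild type.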

Variant	reverse-splicing fitness
C82U A111C A120C	0.0271
C82G A145U C150A C169U U176A	0.0124
C82G A145U C150A C169U U176C	0.013
C82G A145U C150A C169U U176G	0.00507
C82G A145C C169A U176C	0.00541
C82G A145C C169A U176G	0.00481
C82G A145C C169A U176A	0.0121
C82G C150U C169A U176A	0.0176
C82G C150U C169A U176C	0.0132
C82G C150U C169A U176G	0.00526
C82G A145U C150U C169U	0.0123
C82G A145U C150U C169G	0.0103
C82G A145U C150U C169A	0.00964
C82G A145G C150U C169U U176C	0.015
C82G A145G C150U C169U U176A	0.0145
C82G A145G C150U C169U U176G	0.0045
C82G A145C C150G U176A	0.0337
C82G A145C C150G U176C	0.0389
C82G A145C C150G U176G	0.0106
C82G A145U C150G	0.0473
C82G A145U C150U	0.321
C82G A145U C150A	0.0405
C82G C150U C169U U176C	0.0159
C82G C150U C169U U176A	0.0142

Variant	reverse-splicing fitness
C82G C150U C169U U176G	0.00459
C82G A145C C150A C169U	0.00875
C82G A145C C150A C169A	0.00782
C82G A145C C150A C169G	0.00807
C82G A145G C150A C169U U176A	0.0137
C82G A145G C150A C169U U176G	0.00552
C82G A145G C150A C169U U176C	0.0141
C82G A145U C150G C169G U176A	0.00882
C82G A145U C150G C169G U176C	0.00645
C82G A145U C150G C169G U176G	0.00508
C82G C169G U176C	0.0235
C82G C169G U176A	0.0155
C82G C169G U176G	0.00418
C82G A145G C169U U176G	0.00412
C82G A145G C169U U176C	0.0155
C82G A145G C169U U176A	0.0138
C82G A120U C150U U176G	0.0119
C82G A120U C150U U176A	0.0366
C82G A120U C150U U176C	0.058
C82G C150A C169G U176C	0.0214
C82G C150A C169G U176G	0.00539
C82G C150A C169G U176A	0.0179
C82G A145U C150G C169G	0.00774
C82G A145U C150G C169A	0.00874

Variant	reverse-splicing fitness
C82G A145U C150G C169U	0.0092
C82G A120U C150U C169A	0.00461
C82G A120U C150U C169G	0.00527
C82G A120U C150U C169U	0.00575
C82G A145C C150G C169A U176C	0.00634
C82G A145C C150G C169A U176G	0.00487
C82G A145C C150G C169A U176A	0.00807
C82G A120U C150G U176A	0.0062
C82G A120U C150G U176G	0.00297
C82G A120U C150G U176C	0.0103
C82G A145U C150G C169U U176G	0.0049
C82G A145U C150G C169U U176C	0.0119
C82G A145U C150G C169U U176A	0.00876
C82G A145U C169G	0.0104
C82G A145U C169A	0.00844
C82G A145U C169U	0.0147
C82G A120U C169G U176G	0.00147
C82G A120U C169G U176C	0.00322
C82G A120U C169G U176A	0.00367
C82G A145U C169U U176A	0.0116
C82G A145U C169U U176G	0.00368
C82G A145U C169U U176C	0.0136
C82U A111C A120C A145C C150U	0.0104
C82U A111C A120C A145C C150A	0.0072

Variant	reverse-splicing fitness
C82U A111C A120C A145C C150G	0.00813
C82G A145U	0.509
C82G A145G	0.458
C82G A145C	0.45
C82G A145U C150U C169U U176G	0.00492
C82G A145U C150U C169U U176C	0.0121
C82G A145U C150U C169U U176A	0.0118
C82G C150G C169G U176A	0.00727
C82G C150G C169G U176G	0.00511
C82G C150G C169G U176C	0.00598
C82G A145G C150G C169U U176G	0.0072
C82G A145G C150G C169U U176C	0.0131
C82G A145G C150G C169U U176A	0.0126
C82G U176C	0.352
C82G U176G	0.14
C82G U176A	0.364
C82U A111C A120C A145C C150G C169A	0.00861
C82U A111C A120C A145C C150G C169U	0.00884
C82U A111C A120C A145C C150G C169G	0.00681
C82G C150U U176G	0.0728
C82G C150U U176C	0.206
C82G C150U U176A	0.181
C82G A145G U176C	0.374
C82G A145G U176A	0.341

Variant	reverse-splicing fitness
C82G A145G U176G	0.133
C82G C150U C169G	0.0104
C82G C150U C169A	0.0106
C82G C150U C169U	0.0143
C82G C150G C169U U176A	0.00858
C82G C150G C169U U176C	0.0132
C82G C150G C169U U176G	0.00593
C82G C150G C169A	0.00919
C82G C150G C169G	0.00811
C82G C150G C169U	0.00971
C82U A111C A120C A145C	0.0222
C82U A111C A120C A145C C150A C169A U176A	0.0113
C82U A111C A120C A145C C150A C169A U176G	0.00679
C82U A111C A120C A145C C150A C169A U176C	0.00754
C82G A120U C150U	0.1
C82G A145U C150A C169A	0.00972
C82G A145U C150A C169U	0.00756
C82G A145U C150A C169G	0.00669
C82G A145G C150A U176C	0.0688
C82G A145G C150A U176A	0.0509
C82G A145G C150A U176G	0.0244
C82G A145G C169A U176G	0.00413
C82G A145G C169A U176A	0.0187
C82G A145G C169A U176C	0.0249

Variant	reverse-splicing fitness
C82G A145C C150A C169U U176G	0.00493
C82G A145C C150A C169U U176A	0.0123
C82G A145C C150A C169U U176C	0.00742
C82G A145G C150A C169G U176G	0.00515
C82G A145G C150A C169G U176A	0.017
C82G A145G C150A C169G U176C	0.0286
C82G C150U C169G U176C	0.0199
C82G C150U C169G U176G	0.00501
C82G C150U C169G U176A	0.0154
C82G A145U C169G U176A	0.00948
C82G A145U C169G U176G	0.00439
C82G A145U C169G U176C	0.0115
C82G A145C C150G	0.0512
C82G A145C C150U	0.0965
C82G A145C C150A	0.0227
C82U A111C A120C A145C C150A C169U U176G	0.00596
C82U A111C A120C A145C C150A C169U U176C	0.0117
C82U A111C A120C A145C C150A C169U U176A	0.0156
C82G A145U C150G U176G	0.0103
C82G A145U C150G U176A	0.0361
C82G A145U C150G U176C	0.0376
C82G C150A U176A	0.0422
C82G C150A U176C	0.0447
C82G C150A U176G	0.0188

Variant	reverse-splicing fitness
C82G A145U C150G C169A U176A	0.0121
C82G A145U C150G C169A U176G	0.00553
C82G A145U C150G C169A U176C	0.0105
C82U A111C A120C A145C C150U C169G	0.00644
C82U A111C A120C A145C C150U C169A	0.00742
C82G C169A U176C	0.0165
C82G C169A U176A	0.0146
C82G C169A U176G	0.00463
C82G C150A C169U U176A	0.0154
C82G C150A C169U U176G	0.0071
C82G C150A C169U U176C	0.0141
C82G C150A C169A U176A	0.0213
C82G C150A C169A U176C	0.0158
C82G C150A C169A U176G	0.00584
C82U A111C A120C A145C C150U C169A U176G	0.00658
C82U A111C A120C A145C C150U C169A U176C	0.00703
C82U A111C A120C A145C C150U C169A U176A	0.012
C82G C150A C169G	0.00937
C82G C150A C169A	0.00956
C82G C150A C169U	0.0101
C82U A111C	0.251
C82U A111C A120C A145C C150U C169G U176A	0.0188
C82U A111C A120C A145C C150U C169G U176G	0.00566
